Assay results taken from patent publication US12630600B2 (MEDIMMUNE LIMITED, priority 2022, dated 2026).
Starred links: 1 amine or outer side, 2 acyl side, 3 side chain; linkers in the order of their positions; H or OH if unused. Non-standard residues stand in square brackets, D forms with d. Groups on a side chain read outwards from the residue. No end group written: not given here. *: point of attachment. C20 diacid = O=C(O)CCCCCCCCCCCCCCCCCCC(=O)*; C18 diacid = O=C(O)CCCCCCCCCCCCCCCCC(=O)*; γGlu = O=C(O)[C@H](CCC(=O)[*:2])N[*:1]; αMeF = C[C@](N)(Cc1ccccc1)C(=O)O; AEEA = NCCOCCOCC(=O)O; Aib = CC(C)(N)C(=O)O

B1: Peptide 421 (peptide)
peptide: H[Aib]QGTFTSDVSK[αMeF]LDRK([AEEA-AEEA-γGlu-C18 diacid])RAQDFVRWLL[Aib]TE-OH
modifications: N-terminus assumed
SMILES: CC(C)C[C@H](NC(=O)[C@H](Cc1c[nH]c2ccccc12)NC(=O)[C@H](CCCNC(=N)N)NC(=O)[C@@H](NC(=O)[C@H](Cc1ccccc1)NC(=O)[C@H](CC(=O)O)NC(=O)[C@H](CCC(N)=O)NC(=O)[C@H](C)NC(=O)[C@H](CCCNC(=N)N)NC(=O)[C@H](CCCCNC(=O)COCCOCCNC(=O)COCCOCCNC(=O)CC[C@H](NC(=O)CCCCCCCCCCCCCCCCC(=O)O)C(=O)O)NC(=O)[C@H](CCCNC(=N)N)NC(=O)[C@H](CC(=O)O)NC(=O)[C@H](CC(C)C)NC(=O)[C@](C)(Cc1ccccc1)NC(=O)[C@H](CCCCN)NC(=O)[C@H](CO)NC(=O)[C@@H](NC(=O)[C@H](CC(=O)O)NC(=O)[C@H](CO)NC(=O)[C@@H](NC(=O)[C@H](Cc1ccccc1)NC(=O)[C@@H](NC(=O)CNC(=O)[C@H](CCC(N)=O)NC(=O)C(C)(C)NC(=O)[C@@H](N)Cc1c[nH]cn1)[C@@H](C)O)[C@@H](C)O)C(C)C)C(C)C)C(=O)N[C@@H](CC(C)C)C(=O)NC(C)(C)C(=O)N[C@H](C(=O)N[C@@H](CCC(=O)O)C(=O)O)[C@@H](C)O
B2: Peptide 420 (peptide)
peptide: H[Aib]QGTFTSDVSK[αMeF]LDKK([AEEA-AEEA-γGlu-C18 diacid])RAQDFVRWLL[Aib]E-NH2
modifications: N-terminus assumed
SMILES: CC(C)C[C@H](NC(=O)[C@H](Cc1c[nH]c2ccccc12)NC(=O)[C@H](CCCNC(=N)N)NC(=O)[C@@H](NC(=O)[C@H](Cc1ccccc1)NC(=O)[C@H](CC(=O)O)NC(=O)[C@H](CCC(N)=O)NC(=O)[C@H](C)NC(=O)[C@H](CCCNC(=N)N)NC(=O)[C@H](CCCCNC(=O)COCCOCCNC(=O)COCCOCCNC(=O)CC[C@H](NC(=O)CCCCCCCCCCCCCCCCC(=O)O)C(=O)O)NC(=O)[C@H](CCCCN)NC(=O)[C@H](CC(=O)O)NC(=O)[C@H](CC(C)C)NC(=O)[C@](C)(Cc1ccccc1)NC(=O)[C@H](CCCCN)NC(=O)[C@H](CO)NC(=O)[C@@H](NC(=O)[C@H](CC(=O)O)NC(=O)[C@H](CO)NC(=O)[C@@H](NC(=O)[C@H](Cc1ccccc1)NC(=O)[C@@H](NC(=O)CNC(=O)[C@H](CCC(N)=O)NC(=O)C(C)(C)NC(=O)[C@@H](N)Cc1c[nH]cn1)[C@@H](C)O)[C@@H](C)O)C(C)C)C(C)C)C(=O)N[C@@H](CC(C)C)C(=O)NC(C)(C)C(=O)N[C@@H](CCC(=O)O)C(N)=O
B3: Peptide 418 (peptide)
peptide: H[Aib]QGTFTSDVSK[αMeF]LDTK([AEEA-AEEA-γGlu-γGlu-C20 diacid])RAQDFVAWLEA[Aib]G-OH
modifications: N-terminus assumed
SMILES: CC(C)C[C@H](NC(=O)[C@H](Cc1c[nH]c2ccccc12)NC(=O)[C@H](C)NC(=O)[C@@H](NC(=O)[C@H](Cc1ccccc1)NC(=O)[C@H](CC(=O)O)NC(=O)[C@H](CCC(N)=O)NC(=O)[C@H](C)NC(=O)[C@H](CCCNC(=N)N)NC(=O)[C@H](CCCCNC(=O)COCCOCCNC(=O)COCCOCCNC(=O)CC[C@H](NC(=O)CC[C@H](NC(=O)CCCCCCCCCCCCCCCCCCC(=O)O)C(=O)O)C(=O)O)NC(=O)[C@@H](NC(=O)[C@H](CC(=O)O)NC(=O)[C@H](CC(C)C)NC(=O)[C@](C)(Cc1ccccc1)NC(=O)[C@H](CCCCN)NC(=O)[C@H](CO)NC(=O)[C@@H](NC(=O)[C@H](CC(=O)O)NC(=O)[C@H](CO)NC(=O)[C@@H](NC(=O)[C@H](Cc1ccccc1)NC(=O)[C@@H](NC(=O)CNC(=O)[C@H](CCC(N)=O)NC(=O)C(C)(C)NC(=O)[C@@H](N)Cc1c[nH]cn1)[C@@H](C)O)[C@@H](C)O)C(C)C)[C@@H](C)O)C(C)C)C(=O)N[C@@H](CCC(=O)O)C(=O)N[C@@H](C)C(=O)NC(C)(C)C(=O)NCC(=O)O
B4: Peptide 415 (peptide)
peptide: H[Aib]QGTFTSDVSK[αMeF]LESK([AEEA-AEEA-γGlu-C18 diacid])RAQDFVRWLEA[Aib]G-OH
modifications: N-terminus assumed
SMILES: CC(C)C[C@H](NC(=O)[C@H](Cc1c[nH]c2ccccc12)NC(=O)[C@H](CCCNC(=N)N)NC(=O)[C@@H](NC(=O)[C@H](Cc1ccccc1)NC(=O)[C@H](CC(=O)O)NC(=O)[C@H](CCC(N)=O)NC(=O)[C@H](C)NC(=O)[C@H](CCCNC(=N)N)NC(=O)[C@H](CCCCNC(=O)COCCOCCNC(=O)COCCOCCNC(=O)CC[C@H](NC(=O)CCCCCCCCCCCCCCCCC(=O)O)C(=O)O)NC(=O)[C@H](CO)NC(=O)[C@H](CCC(=O)O)NC(=O)[C@H](CC(C)C)NC(=O)[C@](C)(Cc1ccccc1)NC(=O)[C@H](CCCCN)NC(=O)[C@H](CO)NC(=O)[C@@H](NC(=O)[C@H](CC(=O)O)NC(=O)[C@H](CO)NC(=O)[C@@H](NC(=O)[C@H](Cc1ccccc1)NC(=O)[C@@H](NC(=O)CNC(=O)[C@H](CCC(N)=O)NC(=O)C(C)(C)NC(=O)[C@@H](N)Cc1c[nH]cn1)[C@@H](C)O)[C@@H](C)O)C(C)C)C(C)C)C(=O)N[C@@H](CCC(=O)O)C(=O)N[C@@H](C)C(=O)NC(C)(C)C(=O)NCC(=O)O
B5: Peptide 417 (peptide)
peptide: H[Aib]QGTFTSDVSK[αMeF]LDTK([AEEA-AEEA-γGlu-γGlu-C18 diacid])RAQDFVAWLEA[Aib]G-OH
modifications: N-terminus assumed
SMILES: CC(C)C[C@H](NC(=O)[C@H](Cc1c[nH]c2ccccc12)NC(=O)[C@H](C)NC(=O)[C@@H](NC(=O)[C@H](Cc1ccccc1)NC(=O)[C@H](CC(=O)O)NC(=O)[C@H](CCC(N)=O)NC(=O)[C@H](C)NC(=O)[C@H](CCCNC(=N)N)NC(=O)[C@H](CCCCNC(=O)COCCOCCNC(=O)COCCOCCNC(=O)CC[C@H](NC(=O)CC[C@H](NC(=O)CCCCCCCCCCCCCCCCC(=O)O)C(=O)O)C(=O)O)NC(=O)[C@@H](NC(=O)[C@H](CC(=O)O)NC(=O)[C@H](CC(C)C)NC(=O)[C@](C)(Cc1ccccc1)NC(=O)[C@H](CCCCN)NC(=O)[C@H](CO)NC(=O)[C@@H](NC(=O)[C@H](CC(=O)O)NC(=O)[C@H](CO)NC(=O)[C@@H](NC(=O)[C@H](Cc1ccccc1)NC(=O)[C@@H](NC(=O)CNC(=O)[C@H](CCC(N)=O)NC(=O)C(C)(C)NC(=O)[C@@H](N)Cc1c[nH]cn1)[C@@H](C)O)[C@@H](C)O)C(C)C)[C@@H](C)O)C(C)C)C(=O)N[C@@H](CCC(=O)O)C(=O)N[C@@H](C)C(=O)NC(C)(C)C(=O)NCC(=O)O
B6: Peptide 416 (peptide)
peptide: H[Aib]QGTFTSDVSK[αMeF]LESK([AEEA-AEEA-γGlu-C20 diacid])RAQDFVRWLEA[Aib]G-OH
modifications: N-terminus assumed
SMILES: CC(C)C[C@H](NC(=O)[C@H](Cc1c[nH]c2ccccc12)NC(=O)[C@H](CCCNC(=N)N)NC(=O)[C@@H](NC(=O)[C@H](Cc1ccccc1)NC(=O)[C@H](CC(=O)O)NC(=O)[C@H](CCC(N)=O)NC(=O)[C@H](C)NC(=O)[C@H](CCCNC(=N)N)NC(=O)[C@H](CCCCNC(=O)COCCOCCNC(=O)COCCOCCNC(=O)CC[C@H](NC(=O)CCCCCCCCCCCCCCCCCCC(=O)O)C(=O)O)NC(=O)[C@H](CO)NC(=O)[C@H](CCC(=O)O)NC(=O)[C@H](CC(C)C)NC(=O)[C@](C)(Cc1ccccc1)NC(=O)[C@H](CCCCN)NC(=O)[C@H](CO)NC(=O)[C@@H](NC(=O)[C@H](CC(=O)O)NC(=O)[C@H](CO)NC(=O)[C@@H](NC(=O)[C@H](Cc1ccccc1)NC(=O)[C@@H](NC(=O)CNC(=O)[C@H](CCC(N)=O)NC(=O)C(C)(C)NC(=O)[C@@H](N)Cc1c[nH]cn1)[C@@H](C)O)[C@@H](C)O)C(C)C)C(C)C)C(=O)N[C@@H](CCC(=O)O)C(=O)N[C@@H](C)C(=O)NC(C)(C)C(=O)NCC(=O)O
B7: Peptide 419 (peptide)
peptide: H[Aib]QGTFTSDVSK[αMeF]LDTK([AEEA-AEEA-γGlu-C18 diacid])RAQDFVRWLE[Aib]E-OH
modifications: N-terminus assumed
SMILES: CC(C)C[C@H](NC(=O)[C@H](Cc1c[nH]c2ccccc12)NC(=O)[C@H](CCCNC(=N)N)NC(=O)[C@@H](NC(=O)[C@H](Cc1ccccc1)NC(=O)[C@H](CC(=O)O)NC(=O)[C@H](CCC(N)=O)NC(=O)[C@H](C)NC(=O)[C@H](CCCNC(=N)N)NC(=O)[C@H](CCCCNC(=O)COCCOCCNC(=O)COCCOCCNC(=O)CC[C@H](NC(=O)CCCCCCCCCCCCCCCCC(=O)O)C(=O)O)NC(=O)[C@@H](NC(=O)[C@H](CC(=O)O)NC(=O)[C@H](CC(C)C)NC(=O)[C@](C)(Cc1ccccc1)NC(=O)[C@H](CCCCN)NC(=O)[C@H](CO)NC(=O)[C@@H](NC(=O)[C@H](CC(=O)O)NC(=O)[C@H](CO)NC(=O)[C@@H](NC(=O)[C@H](Cc1ccccc1)NC(=O)[C@@H](NC(=O)CNC(=O)[C@H](CCC(N)=O)NC(=O)C(C)(C)NC(=O)[C@@H](N)Cc1c[nH]cn1)[C@@H](C)O)[C@@H](C)O)C(C)C)[C@@H](C)O)C(C)C)C(=O)N[C@@H](CCC(=O)O)C(=O)NC(C)(C)C(=O)N[C@@H](CCC(=O)O)C(=O)O

These binders were tested against human GLP-1 receptor (human, UniProt P43220) (assay: cell-based or functional assay).

cAMP production EC50 | Binder
0.0873 nM | B1
0.0231 nM | B2
0.0881 nM | B3
0.0147 nM | B4
0.0339 nM | B5
0.0677 nM | B6
0.0969 nM | B7

What follows are binders tested against human glucagon receptor (human, UniProt P47871) (assay: cell-based or functional assay).

cAMP production EC50 | Binder
0.18 nM | B1
0.0369 nM | B2
0.222 nM | B3
0.301 nM | B4
0.0164 nM | B5
0.581 nM | B6
0.264 nM | B7
